The values below come from patent US20050112126A1 (Genentech, published 2005).

Experiment [1] addresses T1, VEGF (human, UniProt P15692-4 27-191, limits assumed).
T1 construct: Biotinylated in the KDR-IgG ELISA, amine-coupled to the chip in BIAcore; also called biotinylated VEGF; vascular endothelial growth factor
As to the kind of experiment: BIAcore-2000 SPR, Fab over immobilized VEGF, 25 C. The protocol:
(§1) BIAcore Analysis: The VEGF-binding affinities of Fab fragments were calculated from association and dissociation rate constants measured using a BIAcore-2000™ surface plasmon resonance system (BIAcore, Inc., Piscataway, N.J.). A biosensor chip was activated for covalent coupling of VEGF using N-ethyl-N′-(3-dimethylaminopropyl)-carbodiimide hydrochloride (EDC) and N-hydroxysuccinimide (NHS) according to the supplier's (BIAcore, Inc., Piscataway, N.J.) instructions. VEGF was buffered exchanged into 20 mM sodium acetate, pH 4.8 and diluted to approximately 50 μg/mL. An aliquot (35 μL) was injected at a flow rate of 2 μL/min to achieve approximately 700-1400 response units (RU) of coupled protein. Finally, 1 M ethanolamine was injected as a blocking agent.
(§2) For kinetics measurements, two-fold serial dilutions of Fab were injected in PBS/TWEEN™ buffer (0.05% TWEEN 20™ in phosphate buffered saline) at 25° C. at a flow rate of 10 μL/min. […] Equilibrium dissociation constants, Kd's from surface plasmon resonance (SPR) measurements were calculated as koff/kon.

Experiment [2] deals with T1, VEGF. As to the kind of experiment: BIAcore-2000 SPR, relative to Y0192. The protocol:
as §1, §2
Target sequence in this assay (P15692 other isoform, or with tags, fused parts or gaps limits assumed): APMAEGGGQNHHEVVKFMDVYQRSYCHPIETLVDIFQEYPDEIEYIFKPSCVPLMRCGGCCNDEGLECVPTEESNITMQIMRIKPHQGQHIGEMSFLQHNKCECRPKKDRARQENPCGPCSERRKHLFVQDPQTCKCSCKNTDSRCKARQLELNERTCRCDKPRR
(In SPR one partner is held on a chip, and binding of the other changes the refractive index at the surface.)

The next experiment addresses T2, VEGF121 (human, UniProt P15692 27-147).
T2 construct: mature; Immobilized on the biosensor chip via primary amino groups; also called Purified VEGF121
T2 sequence (looked up): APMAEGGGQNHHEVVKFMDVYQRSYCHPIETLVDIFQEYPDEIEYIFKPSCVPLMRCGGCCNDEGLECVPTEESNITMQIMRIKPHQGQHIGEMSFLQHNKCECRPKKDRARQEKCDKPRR
In words: BIAcore SPR, Fab over immobilized VEGF121. The protocol: VEGF₁₂₁ was covalently immobilized on the biosensorchip via primary amino groups. Binding of humanized A4.6.1 Fab variants was measured by flowing solutions of Fab in PBS/0.05% TWEEN 20™ over the chip at a flow rate of 20 μL/min. Following each binding measurement, residual Fab was stripped from the immobilized ligand by washing with 5 μL of 50 mM aqueous HCl at 3 μL/min. Binding profiles were analyzed by nonlinear regression using a simple monovalent binding model (BIAevaluation software v2.0; Pharmacia).

B1: Y0238-1 (Fab, V domains shown)
VH: EVQLVESGGGLVQPGGSLRLSCAASGYTFTNYGINWVRQAPGKGLEWVGWINTYTGEPTYAADFKRRFTFSLDTSKSTAYLQMNSLRAEDTAVYYCAKYPYYRGTSHWYFDVWGQGTL
VL: DIQLTQSPSSLSASVGDRVTITCRANEQLSNYLNWYQQKPGKAPKVLIYFTSSLHSGVPSRFSGSGSGTDFTLTISSLQPEDFATYYCQQYSTVPWTFGQGTKVEIKR
notes: From library YC-81 on the pY0192 template; Soluble Fab
In the experiment with VEGF [1], B1 registered a Kd of 0.4 nM, a koff of 9e-06 s⁻¹ and a kon of 26000 M⁻¹ s⁻¹. Also, the “Kd (wt)/Kd (mut)” value in the experiment with VEGF [2] came out at 7.3 ratio.

B2: Y0244-1 (Fab, V domains shown)
VH: EVQLVESGGGLVQPGGSLRLSCAASGYTFTNYGINWVRQAPGKGLEWVGWINTYTGEPTYAADFKRRFTFSVDVSKSTAYLQMNSLRAEDTAVYYCAKYPHYYGSSHWYFDVWGQGTL
VL: DIQLTQSPSSLSASVGDRVTITCRANEQLSNYLNWYQQKPGKAPKVLIYFTSSLHSGVPSRFSGSGSGTDFTLTISSLQPEDFATYYCQQYSTVPWTFGQGTKVEIKR
notes: Soluble Fab
On to B2, for which, in the experiment with VEGF [1], the affinity, expressed as Kd, was 8 nM; the koff was determined as 0.00027 s⁻¹; the kon worked out at 34000 M⁻¹ s⁻¹. Further, in the experiment with VEGF [2], the “Kd (wt)/Kd (mut)” value was 3.6 ratio.

B3: Y0238-10 (Fab, V domains shown)
VH: EVQLVESGGGLVQPGGSLRLSCAASGYTFTNYGINWVRQAPGKGLEWVGWINTYTGEPTYAADFKRRFTFSLDTSKSTAYLQMNSLRAEDTAVYYCAKYPYYRNTSHWYFDVWGQGTL
VL: DIQLTQSPSSLSASVGDRVTITCRANEQLSNYLNWYQQKPGKAPKVLIYFTSSLHSGVPSRFSGSGSGTDFTLTISSLQPEDFATYYCQQYSTVPWTFGQGTKVEIKR
notes: as for B1
For the molecule B3, in the experiment with VEGF [1], the affinity, expressed as Kd, was 0.6 nM; the koff came out at 9e-06 s⁻¹; the kon was found to be 16000 M⁻¹ s⁻¹. Moreover, in the experiment with VEGF [2], the “Kd (wt)/Kd (mut)” value turned out to be 4.8 ratio.

B4: Y0244-4 (Fab, V domains shown)
VH: EVQLVESGGGLVQPGGSLRLSCAASGYTFTNYGINWVRQAPGKGLEWVGWINTYTGEPTYAADFKRRFTFSIDKSKSTAYLQMNSLRAEDTAVYYCAKYPHYYGSSHWYFDVWGQGTL
VL: DIQLTQSPSSLSASVGDRVTITCRANEQLSNYLNWYQQKPGKAPKVLIYFTSSLHSGVPSRFSGSGSGTDFTLTISSLQPEDFATYYCQQYSTVPWTFGQGTKVEIKR
notes: Soluble Fab
In the experiment with VEGF [1], B4 returned a Kd of 3.3 nM, a koff of 0.00017 s⁻¹ and a kon of 52000 M⁻¹ s⁻¹. Further, the “Kd (wt)/Kd (mut)” value with VEGF [2] is 0.9 ratio.

B5: Y0238-5 (Fab, V domains shown)
VH: EVQLVESGGGLVQPGGSLRLSCAASGYTFTNYGINWVRQAPGKGLEWVGWINTYTGEPTYAADFKRRFTFSLDTSKSTAYLQMNSLRAEDTAVYYCAKYPYYIAKSHWYFDVWGQGTL
VL: DIQLTQSPSSLSASVGDRVTITCRANEQLSNYLNWYQQKPGKAPKVLIYFTSSLHSGVPSRFSGSGSGTDFTLTISSLQPEDFATYYCQQYSTVPWTFGQGTKVEIKR
notes: as for B1
In the experiment with VEGF [1], B5 gave a Kd of 0.9 nM, a koff of 8e-06 s⁻¹ and a kon of 8000 M⁻¹ s⁻¹. Besides, the “Kd (wt)/Kd (mut)” value in the experiment with VEGF [2] was determined as 3.2 ratio.

B6: Y0243-1 (Fab, V domains shown)
VH: EVQLVESGGGLVQPGGSLRLSCAASGYDFTHYGMNWVRQAPGKGLEWVGWINTYTGEPTYAADFKRRFTFSLDTSKSTAYLQMNSLRAEDTAVYYCAKYPHYYGSSHWYFDVWGQGTL
VL: DIQLTQSPSSLSASVGDRVTITCRANEQLSNYLNWYQQKPGKAPKVLIYFTSSLHSGVPSRFSGSGSGTDFTLTISSLQPEDFATYYCQQYSTVPWTFGQGTKVEIKR
notes: Soluble Fab
In the experiment with VEGF [1], B6 yielded a dissociation constant (Kd) of 0.7 nM, a koff of 4.5e-05 s⁻¹ and a kon of 67000 M⁻¹ s⁻¹. For the same molecule, the “Kd (wt)/Kd (mut)” value with VEGF [2] was 4.1 ratio.

B7: hu2.1 (Fab, name in Kabat numbering, V domains shown)
VH: EVQLVESGGGLVQPGGSLRLSCAASGYTFTNYGMNWIRQAPGKGLEWVGWINTYTGEPTYAADFKRRFTISRDNSKNTVYLQMNSLRAEDTAVYYCAKYPHYYGSSHWYFDVWGQGTLVTVSS
VL: DIQMTQSPSSLSASVGDRVTITCSASQDISNYLNWYQQKPGKAPKLLIYFTSSLHSGVPSRFSGSGSGTDYTLTISSLQPEDFATYYCQQYSTVPWTFGQGTKVEIK
notes: soluble Fab with human constant domains
Take B7: in the experiment with VEGF121, the “KD(A4.6.1)/KD(mut) as headed (values read as KD(mut)/KD(A4.6.1))” value (“KD(A4.6.1)/KD(mut) as headed” for short) stood at 170 ratio, the Kd is 260 nM, the koff is 0.0018 s⁻¹ and the kon was 7000 M⁻¹ s⁻¹.

B8: hu2.10 (Fab, V domains shown)
VH: EVQLVESGGGLVQPGGSLRLSCAASGYTFTNYGMNWIRQAPGKGLEWVGWINTYTGEPTYAADFKRRFTISLDTSASTVYLQMNSLRAEDTAVYYCAKYPHYYGSSHWYFDVWGQGTLVTVSS
VL: DIQMTQSPSSLSASVGDRVTITCSASQDISNYLNWYQQKPGKAPKLLIYFTSSLHSGVPSRFSGSGSGTDYTLTISSLQPEDFATYYCQQYSTVPWTFGQGTKVEIK
notes: Soluble Fab with human constant domains; also called consensus clone hu2.10
As for B8, in the experiment with VEGF121, the “KD(A4.6.1)/KD(mut) as headed” value was 35 ratio, binding was put at a Kd of 55 nM, the “fold tighter KD than hu2.0” value was at least 125 fold and the koff stood at 0.00035 s⁻¹. In the experiment with VEGF121, the kon worked out at 6300 M⁻¹ s⁻¹.

B9: hu2.7 (Fab, name in Kabat numbering, V domains shown)
VH: EVQLVESGGGLVQPGGSLRLSCAASGYTFTNYGMNWIRQAPGKGLEWVGWINTYTGEPTYAADFKRRFTISRDNSKNTVYLQMNSLRAEDTAVYYCAKYPHYYGSSHWYFDVWGQGTLVTVSS
VL: DIQLTQSPSSLSASVGDRVTITCSASQDISNYLNWYQQKPGKAPKLLIYFTSSLHSGVPSRFSGSGSGTDFTLTISSLQPEDFATYYCQQYSTVPWTFGQGTKVEIK
notes: as for B7
For the molecule B9, in the experiment with VEGF121, the “KD(A4.6.1)/KD(mut) as headed” value turned out to be 230 ratio, the Kd is 360 nM, the koff is 0.0024 s⁻¹ and the kon came to 6700 M⁻¹ s⁻¹.

B10: hu2.2 (Fab, name in Kabat numbering, V domains shown)
VH: EVQLVESGGGLVQPGGSLRLSCAASGYTFTNYGMNWIRQAPGKGLEWVGWINTYTGEPTYAADFKRRFTISRDNSKNTVYLQMNSLRAEDTAVYYCAKYPHYYGSSHWYFDVWGQGTLVTVSS
VL: DIQLTQSPSSLSASVGDRVTITCSASQDISNYLNWYQQKPGKAPKLLIYFTSSLHSGVPSRFSGSGSGTDYTLTISSLQPEDFATYYCQQYSTVPWTFGQGTKVEIK
notes: as for B7
For B10, in the experiment with VEGF121, the “KD(A4.6.1)/KD(mut) as headed” value was determined as 210 ratio, the Kd was determined as 340 nM, the koff is 0.0016 s⁻¹ and the kon turned out to be 4700 M⁻¹ s⁻¹.

B11: hu2.6 (Fab, name in Kabat numbering, V domains shown)
VH: EVQLVESGGGLVQPGGSLRLSCAASGYTFTNYGMNWIRQAPGKGLEWVGWINTYTGEPTYAADFKRRTTISLDTSASTVYLQMNSLRAEDTAVYYCAKYPHYYGSSHWYFDVWGQGTLVTVSS
VL: DIQLTQSPSSLSASVGDRVTITCSASQDISNYLNWYQQKPGKAPKLLIYFTSSLHSGVPSRFSGSGSGTDFTLTISSLQPEDFATYYCQQYSTVPWTFGQGTKVEIK
notes: as for B7
Turning to B11, in the experiment with VEGF121, the “KD(A4.6.1)/KD(mut) as headed” value stood at 40 ratio, binding was characterised by a dissociation constant (Kd) of 67 nM, the koff came out at 0.00045 s⁻¹ and the kon stood at 6700 M⁻¹ s⁻¹.

B12: hu2.10V (Fab, V domains shown)
VH: EVQLVESGGGLVQPGGSLRLSCAASGYTFTNYGMNWIRQAPGKGLEWVGWINTYTGEPTYAADFKRRFTISLDTSASTVYLQMNSLRAEDTAVYYCAKYPHYYGSSHWYFDVWGQGTLVTVSS
VL: DIQMTQSPSSLSASVGDRVTITCSASQDISNYLNWYQQKPGKAPKVLIYFTSSLHSGVPSRFSGSGSGTDYTLTISSLQPEDFATYYCQQYSTVPWTFGQGTKVEIK
notes: Soluble Fab with human constant domains; also called hu2.10 with mutation VL Leu->Val
For the molecule B12, in the experiment with VEGF121, the “KD(A4.6.1)/KD(mut) as headed” value stood at 5.8 ratio, the Kd stood at 9.3 nM, the “fold improvement in KD vs hu2.10” value stood at 6 fold and the koff was 0.00018 s⁻¹. For the same molecule, the kon with VEGF121 amounted to 20000 M⁻¹ s⁻¹.

In general, Kd refers to the equilibrium constant for the complex coming apart. Read a low Kd as higher affinity. One may read the koff as a measure of how fast the partners let go of each other. A higher koff goes with a short-lived complex. For orientation: kon means a measure of how fast the partners come together. Read a low kon as slow association.
